This is an account of results in article PMC9355967 (Nature Communications, 2022).

The target of assay [1] is T1, purified AFDN FHA domain, C-terminally extended (371-580) (mouse, UniProt Q9QZQ1 371-580).
T1 construct: 15N-labelled in one NMR experiment; GST probably cut off with thrombin; also called extended FHA domain; source: E. coli BL21, purified (glutathione resin, thrombin cleavage or glutathione elution, SEC)
T1 sequence (looked up): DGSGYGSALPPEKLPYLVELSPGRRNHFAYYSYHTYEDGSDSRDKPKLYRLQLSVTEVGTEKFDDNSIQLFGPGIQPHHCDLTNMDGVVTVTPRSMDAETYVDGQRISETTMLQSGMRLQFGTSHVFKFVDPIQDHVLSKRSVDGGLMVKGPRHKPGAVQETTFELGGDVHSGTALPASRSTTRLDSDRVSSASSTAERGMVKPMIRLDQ
The experiment in a line: ITC; MicroCal ITC200, 25 °C, 20 mM Tris-HCl pH 7.5, 150 mM NaCl, 1 mM DTT. The following applies: both partners purified. For orientation: ITC needs no label: the signal is the heat of the interaction.

The target in assay [2] is T1, purified AFDN FHA domain, C-terminally …. The experiment in a line: ITC; MicroCal ITC200, 25 °C, 20 mM Tris-HCl pH 7.5, 20 mM NaCl, 1 mM DTT. Conditions: both partners purified.

B1: purified SCRIB PDZ1 domain (718-820) (domain or fragment)
chain: not shown
notes: 15N-labelled in one NMR experiment; GST probably cut off with thrombin (it was mixed with GST fusions on glutathione beads); source: E. coli BL21, purified (glutathione resin, thrombin cleavage or glutathione elution, SEC)
For the molecule B1, the Kd (commonly the concentration at which binding is half-saturated) in assay [1] came out at 14.8 µM; in assay [2] it was 5.7 µM.
